B1: Protein argonaute (Schizosaccharomyces pombe (strain ATCC 38366 / 972)), O74957 (parent)
chain: MSYKPSSEIALRPGYGGLGKQITLKANFFQIISLPNETINQYHVIVGDGSRVPRKQSQLIWNSKEVKQYFGSSWMNSVYDGRSMCWSKGDIADGTIKVNIGSESHPREIEFSIQKSSKINLHTLSQFVNSKYSSDPQVLSSIMFLDLLLKKKPSETLFGFMHSFFTGENGVSLGGGVEAWKGFYQSIRPNQGFMSVNVDISSSAFWRNDSLLQILMEYTDCSNVRDLTRFDLKRLSRKFRFLKVTCQHRNNVGTDLANRVYSIEGFSSKSASDSFFVRRLNGEEQKISVAEYFLENHNVRLQYPNLPCILVKNGAMLPIEFCFVVKGQRYTAKLNSDQTANMIRFAVQRPFERVQQIDDFVHQMDWDTDPYLTQYGMKIQKKMLEVPARVLETPSIRYGGDCIERPVSGRWNLRGKRFLDPPRAPIRSWAVMCFTSTRRLPMRGIENFLQTYVQTLTSLGINFVMKKPPVLYADIRGSVEELCITLYKKAEQVGNAPPDYLFFILDKNSPEPYGSIKRVCNTMLGVPSQCAISKHILQSKPQYCANLGMKINVKVGGINCSLIPKSNPLGNVPTLILGGDVYHPGVGATGVSIASIVASVDLNGCKYTAVSRSQPRHQEVIEGMKDIVVYLLQGFRAMTKQQPQRIIYFRDGTSEGQFLSVINDELSQIKEACHSLSPKYNPKILVCTTQKRHHARFFIKNKSDGDRNGNPLPGTIIEKHVTHPYQYDFYLISHPSLQGVSVPVHYTVLHDEIQMPPDQFQTLCYNLCYVYARATSAVSLVPPVYYAHLVSNLARYQDVTADDTFVETSEASMDQEVKPLLALSSKLKTKMWYM
partner: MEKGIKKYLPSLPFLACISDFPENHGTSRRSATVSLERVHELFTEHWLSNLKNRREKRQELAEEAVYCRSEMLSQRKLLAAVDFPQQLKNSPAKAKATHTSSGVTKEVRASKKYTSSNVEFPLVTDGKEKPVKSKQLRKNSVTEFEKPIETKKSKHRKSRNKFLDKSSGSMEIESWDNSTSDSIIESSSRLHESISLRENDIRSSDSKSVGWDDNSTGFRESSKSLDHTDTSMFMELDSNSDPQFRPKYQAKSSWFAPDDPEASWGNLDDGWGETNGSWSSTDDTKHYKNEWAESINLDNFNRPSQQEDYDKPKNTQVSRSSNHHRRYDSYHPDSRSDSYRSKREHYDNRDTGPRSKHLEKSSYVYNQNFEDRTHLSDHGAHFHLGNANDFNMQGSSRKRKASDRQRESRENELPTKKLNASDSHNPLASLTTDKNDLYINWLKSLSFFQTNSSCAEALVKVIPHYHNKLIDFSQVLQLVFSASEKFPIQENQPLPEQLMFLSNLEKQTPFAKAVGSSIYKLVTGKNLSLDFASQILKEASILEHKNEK

The results in this text go back to IntAct's records for PubMed 25730778.

The variants in this assay derive from B1. Conditions: with tas3_schpo tas3, O94687.
On to R773E, for which the “effect of a mutation on the interaction” value is listed as “disrupting interaction strength”.

As to F276A;R773E, the “effect of a mutation on the interaction” value was “disrupting interaction strength”.
